Measured values published in patent US8148112B2, “Sugar chain containing 4-position halogenated galactose and application thereof” (National University Corporation Hokkaido University, priority 2005, dated 2012).

Assay: Galactose-1-phosphate uridylyltransferase (GalT) activity of the enzyme liquid
Format: biochemical, E. coli
Conditions: galactose-1-phosphate uridylyltransferase activity of purified enzyme liquid, method by Takeda et al.
Protocol: E. coli (JM109 strain) (from Takara Bio) was transformed with a pTrc-GalT plasmid (JP-A-2002-335988) in which a gene encoding E. coli-derived GalT has been inserted. The transformed cells were inoculated to a 2×YT medium (50 mL) containing 100 μg/mL ampicillin, followed by shake culturing at 37° C. When the number of the cells reached 1×10^8 cells/mL, IPTG was added to the culture so as to adjust the final concentration to 1 mM, and shake culture was continued for further five hours. After completion of culturing, cells were collected through centrifugation (9,000×g, 20 min) and suspended in a buffer (50 mM HEPES-NaOH (pH: 8.0), 0.1 mM zinc sulfate, 10 mM 2-mercaptoethanol, and 50 mM sodium chloride) […]). The cells were disrupted through ultrasonication, and the product was centrifuged (20,000×g, 10 min), to thereby remove cell residues.
The thus-produced fraction was employed as an enzyme liquid in the following synthesis reactions. The galactose-1-phosphate uridylyltransferase (GalT) activity of the enzyme liquid was determined (Table 1). In the present invention, GalT activity was determined through a method by Takeda et al. (JP-A-2002-335988). The thus-yielded galactose-1-phosphate uridylyltransferase is identical to hexose-1-phosphate uridylyltransferase and catalyzes the same reaction (E.C.2.7.7.12).

B1: GalT: E. coli-derived galactose-1-phosphate uridylyltransferase, purified enzyme liquid (protein, UniProt P09148 1-348, looked up)
Galactose-1-phosphate …: MTQFNPVDHPHRRYNPLTGQWILVSPHRAKRPWQGAQETPAKQVLPAHDPDCFLCAGNVRVTGDKNPDYTGTYVFTNDFAALMSDTPDAPESHDPLMRCQSARGTSRVICFSPDHSKTLPELSVAALTEIVKTWQEQTAELGKTYPWVQVFENKGAAMGCSNPHPHGQIWANSFLPNEAEREDRLQKEYFAEQKSPMLVDYVQRELADGSRTVVETEHWLAVVPYWAAWPFETLLLPKAHVLRITDLTDAQRSDLALALKKLTSRYDNLFQCSFPYSMGWHGAPFNGEENQHWQLHAHFYPPLLRSATVRKFMVGYEMLAETQRDLTAEQAAERLRAVSDIHFRESGV
**Q.** For B1, which Enzymatic activity is on record?
**A.** The Enzymatic activity was 46.7 units/mg protein.
